Measurements published in patent publication US12099068B2, “Biomarkers for graft-versus-host disease” (Incyte Corporation, priority 2018, dated 2024).

Tested on: plasma proteins
Assay: Plasma proteins modulated between baseline and day 28 in responders (CR, VGPR, PR; n = 19), Example 6 (Table 13)
Type: in vivo, human
Settings: plasma protein (OLINK NPX); responders (CR, VGPR, PR; n = 19); itacitinib 200 mg or 300 mg QD with corticosteroids; day 28 vs baseline
Method in brief: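 Longitudinal comparison, day 28 versus baseline, with steroid-naive (N=10) and steroid-refractory (N=18) patients combined. Proteins measured by OLINK proximity extension, log2 normalized protein expression. Differences tested by t tests, ANOVA, Pearson correlation, P<0.05 significant.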

| Molecule | Fold Change, Decreased Expression from Baseline to Day 28 | Fold Change, Increased Expression from Baseline to Day 28 |
| --- | --- | --- |
| GRAP2 (protein, UniProt O75791 1-330, looked up) GRB2-related adapter protein 2: MEAVAKFDFTASGEDELSFHTGDVLKILSNQEEWFKAELGSQEGYVPKNFIDIQFPKWFHEGLSRHQAENLLMGKEVGFFIIRASQSSPGDFSISVRHEDDVQHFKVMRDNKGNYFLWTEKFPSLNKLVDYYRTNSISRQKQIFLRDRTREDQGHRGNSLDRRSQGGPHLSGAVGEEIRPSMNRKLSDHPPTLPLQQHQHQPQPPQYAPAPQQLQQPPQQRYLQHHHFHQERRGGSLDINDGHCGTGLGSEMNAALMHRRHTDPVQLQAAGRVRWARALYDFEALEDDELGFHSGEVVEVLDSSNPSWWTGRLHNKLGLFPANYVAPMTR | −1.6468 | – |
| CPA2 (protein, UniProt P48052 115-419, looked up) Carboxypeptidase A2: SGNFNFGAYHTLEEISQEMDNLVAEHPGLVSKVNIGSSFENRPMNVLKFSTGGDKPAIWLDAGIHAREWVTQATALWTANKIVSDYGKDPSITSILDALDIFLLPVTNPDGYVFSQTKNRMWRKTRSKVSGSLCVGVDPNRNWDAGFGGPGASSNPCSDSYHGPSANSEVEVKSIVDFIKSHGKVKAFITLHSYSQLLMFPYGYKCTKLDDFDELSEVAQKAAQSLRSLHGTKYKVGPICSVIYQASGGSIDWSYDYGIKYSFAFELRDTGRYGFLLPARQILPTAEETWLGLKAIMEHVRDHPY | – | 1.7185 |
| NBN (protein, UniProt O60934 1-754, looked up) Nibrin: MWKLLPAAGPAGGEPYRLLTGVEYVVGRKNCAILIENDQSISRNHAVLTANFSVTNLSQTDEIPVLTLKDNSKYGTFVNEEKMQNGFSRTLKSGDGITFGVFGSKFRIEYEPLVACSSCLDVSGKTALNQAILQLGGFTVNNWTEECTHLVMVSVKVTIKTICALICGRPIVKPEYFTEFLKAVESKKQPPQIESFYPPLDEPSIGSKNVDLSGRQERKQIFKGKTFIFLNAKQHKKLSSAVVFGGGEARLITEENEEEHNFFLAPGTCVVDTGITNSQTLIPDCQKKWIQSIMDMLQRQGLRPIPEAEIGLAVIFMTTKNYCDPQGHPSTGLKTTTPGPSLSQGVSVDEKLMPSAPVNTTTYVADTESEQADTWDLSERPKEIKVSKMEQKFRMLSQDAPTVKESCKTSSNNNSMVSNTLAKMRIPNYQLSPTKLPSINKSKDRASQQQQTNSIRNYFQPSTKKRERDEENQEMSSCKSARIETSCSLLEQTQPATPSLWKNKEQHLSENEPVDTNSDNNLFTDTDLKSIVKNSASKSHAAEKLRSNKKREMDDVAIEDEVLEQLFKDTKPELEIDVKVQKQEEDVNVRKRPRMDIETNDTFSDEAVPESSKISQENEIGKKRELKEDSLWSAKEISNNDKLQDDSEMLPKKLLLTEFRSLVIKNSTSRNPSGINDDYGQLKNFKKFKKVTYPGAGKLPHIIGGSDLIAHHARKNTELEEWLRQEMEVQNQHAKEESLADDLFRYNPYLKRRR | −1.5879 | – |
| Ep-CAM (protein, UniProt P16422 24-314, looked up) Epithelial cell adhesion …: QEECVCENYKLAVNCFVNNNRQCQCTSVGAQNTVICSKLAAKCLVMKAEMNGSKLGRRAKPEGALQNNDGLYDPDCDESGLFKAKQCNGTSMCWCVNTAGVRRTDKDTEITCSERVRTYWIIIELKHKAREKPYDSKSLRTALQKEITTRYQLDPKFITSILYENNVITIDLVQNSSQKTQNDVDIADVAYYFEKDVKGESLFHSKKMDLTVNGEQLDLDPGQTLIYYVDEKAPEFSMQGLKAGVIAVIVVVVIAVVAGIVVLVISRKKRMAKYEKAEIKEMGEMHRELNA | – | 1.403 |
